# Assays:
# [1] = tested on: HsUFM1; assay: Isothermal titration calorimetry, HsUFM1 titrated with HsC53wt; format: binding, Homo sapiens; conditions: 40 μM HsUFM1 in cell, 300 or 550 μM HsC53wt in syringe
# Procedure: (§1) All experiments were carried out at 25°C in 50 mM sodium phosphate buffer pH 7.0, 100 mM NaCl, using the PEAQ‐ITC Automated (Malvern Panalytical Ltd). For protein–protein interactions, the calorimetric cell was filled with either GABARAP or HsUFM1 and titrated with either HsC53 wt, HsC53 sAIM, HsC53 cAIM, or HsUBA5 LIR. A single injection of 0.4 μl of HsC53 or AtC53 IDRs (not taken into account) was followed by 18 injections of 2 μl each. Injections were made at 150‐s intervals with a duration of 4 s and a stirring speed of 750 rpm. The reference power was set to 10 μcal/s; the feedback mode was set to high. The raw titration data were integrated with NITPIC (Keller et al, [2012]), globally fitted with SEDPHAT (Zhao et al, [2015]), and plotted with GUSSI (Brautigam, [2015]).
# [2] = tested on: HsFIP200 Claw domain (CD); assay: Microscopy-based on-bead protein-protein interaction assay, GST-FIP200 CD beads; format: binding, Homo sapiens; conditions: 1 μM HsC53 variant, 2 independent replicates containing 2 technical replicates
# Procedure: (§2) Glutathione‐Sepharose 4B bead slurry (Cytiva, average diameter 90 μm) was washed and diluted 10 times in HEPES buffer (25 mM HEPES pH 7.5, 150 mM NaCl, 1 mM DTT). The beads were then incubated for 30 min at 4°C (16 rpm horizontal rotation) with GST‐tagged bait proteins (2 μM of GST, GST‐FIP200 CD, GST‐ATG8A, GST‐GABARAP, GST‐AtUFM1, and GST‐HsUFM1). The beads were washed five times in 10 times the bead volume of HEPES buffer. The buffer was removed, and the beads were resuspended 1:20 in HEPES buffer. 10 μl of diluted beads was mixed with 20 μl of mCherry‐tagged binding partner at a concentration of 1.5 μM (0.5 μl bead slurry and 1 μM binding partner final concentrations) with or without competitor, as stated in the relative experiment. […]
# (§3) From images acquired from a Zeiss LSM700 confocal microscope, the quantification of fluorescence was performed in ImageJ (Schindelin et al, [2012]) by drawing a line across each bead and taking the maximum gray value along the line. The maximum gray value for any given pixel represents the fluorescence intensity.
# (§4) For images acquired from a Zeiss LSM800 confocal microscope, we used a custom Fiji Macro. […] In the end, the mean fluorescent intensities were exported out and used for quantification.
# (§5) For each method, the fluorescence intensity was normalized against the mean of the control condition.
# [3] = molecular target: GABARAP; assay: Isothermal titration calorimetry, GABARAP titrated with HsC53 variants; format: binding, human; conditions: ITC, 25°C, 50 mM sodium phosphate pH 7.0, 100 mM NaCl; GABARAP 40 or 70 μM in cell; global analysis of 5 titrations, hetero-association model A + B; read-out: KD, best-fit value (ITC, GABARAP)
# Procedure: as §1
# [4] = tested on: GST-ATG8A; assay: Microscopy-based on-bead protein-protein interaction assay, GST-ATG8A beads; format: binding, Arabidopsis thaliana; conditions: 1 μM mCherry-tagged C53 (AtC53 variants per Appendix Fig S10A); normalized fluorescence; mean average; 3 replicates
# Procedure: as §2, §3, §4, §5
# [5] = tested on: GST-GABARAP; assay: Microscopy-based on-bead protein-protein interaction assay, GST-GABARAP beads; format: binding, human; conditions: 1 μM mCherry-tagged C53 (HsC53 variants per Appendix Fig S10B); normalized fluorescence; mean average; 3 replicates
# Procedure: as §2, §3, §4, §5
# [6] = tested on: GST-HsUFM1 / mCh-HsC53 interaction; assay: On-bead competition of the HsUFM1-HsC53 interaction; format: binding, Homo sapiens; conditions: 1 μM HsC53; cAIM peptide 0-100 μM; UBA5 LIR peptide or GABARAP 100 μM
# Procedure: as §2, §3, §4, §5
molecule,measurement,setting,value
"HsC53^wt: recombinant Homo sapiens C53 (CDK5RAP3), wild type (protein, left off: His6, N-terminal, state not stated, recombinant Homo sapiens C53 (CDK5RAP3), wild type) MEDHQHVPIDIQTSKLLDWLVDRRHCSLKWQSLVLTIREKINAAIQDMPESEEIAQLLSGSYIHYFHCLRILDLLKGTEASTKNIFGRYSSQRMKDWQEIIALYEKDNTYLVELSSLLVRNVNYEIPSLKKQIAKCQQLQQEYSRKEEECQAGAAEMREQFYHSCKQYGITGENVRGELLALVKDLPSQLAEIGAAAQQSLGEAIDVYQASVGFVCESPTEQVLPMLRFVQKRGNSTVYEWRTGTEPSVVERPHLEELPEQVAEDAIDWGDFGVEAVSEGTDSGISAEAAGIDWGIFPESDSKDPGGDGIDWGDDAVALQITVLEAGTQAPEGVARGPDALTLLEYTETRNQFLDELMELEIFLAQRAVELSEEADVLSVSQFQLAPAILQGQTKEKMVTMVSVLEDLIGKLTSLQLQHLFMILASPRYVDRVTEFLQQKLKQSQLLALKKELMVQKQQEALEEQAALEPKLDLLLEKTKELQKLIEADISKRYSGRPVNLMGTSL",Binding to UFM1 by ITC (in words),[1],did not detect appreciable binding
"HsC53^cAIM: HsC53^(IDWG267WDGI, IDWG292WDGI, IDWG310WDGI) (protein) MEDHQHVPIDIQTSKLLDWLVDRRHCSLKWQSLVLTIREKINAAIQDMPESEEIAQLLSGSYIHYFHCLRILDLLKGTEASTKNIFGRYSSQRMKDWQEIIALYEKDNTYLVELSSLLVRNVNYEIPSLKKQIAKCQQLQQEYSRKEEECQAGAAEMREQFYHSCKQYGITGENVRGELLALVKDLPSQLAEIGAAAQQSLGEAIDVYQASVGFVCESPTEQVLPMLRFVQKRGNSTVYEWRTGTEPSVVERPHLEELPEQVAEDAWDGIDFGVEAVSEGTDSGISAEAAGWDGIIFPESDSKDPGGDGWDGIDDAVALQITVLEAGTQAPEGVARGPDALTLLEYTETRNQFLDELMELEIFLAQRAVELSEEADVLSVSQFQLAPAILQGQTKEKMVTMVSVLEDLIGKLTSLQLQHLFMILASPRYVDRVTEFLQQKLKQSQLLALKKELMVQKQQEALEEQAALEPKLDLLLEKTKELQKLIEADISKRYSGRPVNLMGTSL",FIP200 interaction compared with C53 wild type (in words),[2],stronger interaction
"C53^cAIM: text label without species: HsC53^cAIM with GABARAP (ITC, beads), AtC53^cAIM with GST-ATG8 (protein) MEDHQHVPIDIQTSKLLDWLVDRRHCSLKWQSLVLTIREKINAAIQDMPESEEIAQLLSGSYIHYFHCLRILDLLKGTEASTKNIFGRYSSQRMKDWQEIIALYEKDNTYLVELSSLLVRNVNYEIPSLKKQIAKCQQLQQEYSRKEEECQAGAAEMREQFYHSCKQYGITGENVRGELLALVKDLPSQLAEIGAAAQQSLGEAIDVYQASVGFVCESPTEQVLPMLRFVQKRGNSTVYEWRTGTEPSVVERPHLEELPEQVAEDAWDGIDFGVEAVSEGTDSGISAEAAGWDGIIFPESDSKDPGGDGWDGIDDAVALQITVLEAGTQAPEGVARGPDALTLLEYTETRNQFLDELMELEIFLAQRAVELSEEADVLSVSQFQLAPAILQGQTKEKMVTMVSVLEDLIGKLTSLQLQHLFMILASPRYVDRVTEFLQQKLKQSQLLALKKELMVQKQQEALEEQAALEPKLDLLLEKTKELQKLIEADISKRYSGRPVNLMGTSL",Kd,[3],11.2 µM
same,Recruited more efficiently to GST-ATG8 than the respective C53 wild-type protein,[4],22%
same,Recruited more efficiently to GST-GABARAP than the respective C53 wild-type protein,[5],35%
"GABARAP: human ATG8 isoform GABARAP, used at 100 µM as competitor (protein, left off: GST, N-terminal, kept) MKFVYKEEHPFEKRRSEGEKIRKKYPDRVPVIVEKAPKARIGDLDKKKYLVPSDLTVGQFYFLIRKRIHLRAEDALFFFVNNVIPPTSATMGQLYQEHHEEDFFLYIAYSDESVYGL",Competition of the HsC53-HsUFM1 interaction (in words),[6],able to disrupt

# Source: PMC10183829, “Shuffled ATG8 interacting motifs form an ancestral bridge between UFMylation and autophagy” (The EMBO Journal, 2023)
